According to PMC7775534:

Biological target: T1, DR_1836 (DrSRP protein, Ffh homolog) (Deinococcus radiodurans R1 (ATCC 13939)) (UniProt Q9RTC9)
T1 sequence: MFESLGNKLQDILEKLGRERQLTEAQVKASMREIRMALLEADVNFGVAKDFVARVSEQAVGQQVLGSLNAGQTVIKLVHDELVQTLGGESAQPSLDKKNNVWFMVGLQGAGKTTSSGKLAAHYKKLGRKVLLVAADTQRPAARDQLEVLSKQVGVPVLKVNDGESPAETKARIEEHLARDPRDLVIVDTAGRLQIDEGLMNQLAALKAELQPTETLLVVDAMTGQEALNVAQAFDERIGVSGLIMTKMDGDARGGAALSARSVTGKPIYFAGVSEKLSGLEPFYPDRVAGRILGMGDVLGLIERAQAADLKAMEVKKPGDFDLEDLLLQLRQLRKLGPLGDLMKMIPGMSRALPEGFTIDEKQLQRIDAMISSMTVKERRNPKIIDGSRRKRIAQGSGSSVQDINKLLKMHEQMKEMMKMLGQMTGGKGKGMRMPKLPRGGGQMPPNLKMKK
Assay: EMSA
Settings: 20 mM Tris-HCl pH 8.0, 1 mM MgCl2, 20 mM KCl, 10 mM Na phosphate pH 8.0, 10% glycerol, 0.2 mM DTT, 37 C 1 h; 4% native PAGE, 0.5x TBE, 4 C

With “GGGAGACGCCAGACGUAGGGCAGUACCCCCUUCUCUGCACAGCGCCCGCAACUGUGCUACCAUCCUUCCCGCAUUGCUGGUGCAGCGCAGCGCGGACGCCCGAACCUGGUCAGAGCCGGAAGGCAGCAGCCAUAAGGGAUGCUUUGCGGGUGCCGUUGCCUUCCGGCAAUGCUUUUUUCGUCUCUCCUCGGGGUCGCUUACGGGCGGCCCUGUUUUGUUGUGCUUAGAGCAAUUGACAGAA [Qpr6 (SRP RNA)]” the binding was “binds”.
